Measurements: patent publication US20090054317A1

Molecular target: ANTXR2 expressed in RAW264.7 cells, Q6DFX2
Experiment: cell-based or functional assay

ANTXR2 expressed in RAW264.7 cells, Q6DFX2, sequence (Q6DFX2 32-487 limits assumed): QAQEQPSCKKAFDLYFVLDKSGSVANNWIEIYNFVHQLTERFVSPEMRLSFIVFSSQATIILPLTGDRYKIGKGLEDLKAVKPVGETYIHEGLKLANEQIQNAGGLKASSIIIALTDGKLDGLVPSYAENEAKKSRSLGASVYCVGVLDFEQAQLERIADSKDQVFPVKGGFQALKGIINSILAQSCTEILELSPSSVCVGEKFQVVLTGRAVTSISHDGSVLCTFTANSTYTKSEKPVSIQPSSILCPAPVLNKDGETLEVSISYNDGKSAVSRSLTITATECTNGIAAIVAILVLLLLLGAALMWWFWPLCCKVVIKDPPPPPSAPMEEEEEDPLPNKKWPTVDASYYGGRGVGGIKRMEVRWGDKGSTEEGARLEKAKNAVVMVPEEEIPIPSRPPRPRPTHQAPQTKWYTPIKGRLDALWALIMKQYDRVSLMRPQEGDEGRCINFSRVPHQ

In the case of AWPLSQLDHSYNC (modifications not checked) [… (SEQ ID NO: 3)-functionalized liposomes], the Activity against toxin-induced cell death in RAW264.7 cells (IC50) is reported as 40 nM and the enhancement in the activity of the peptide by polyvalency (against the monovalent peptide) is reported as > 50000 fold.
